Biological target: T1, mouse RFPL4, full-length (amino acid residues 1-287) (mouse) (UniProt Q8VH31)
T1 sequence (looked up): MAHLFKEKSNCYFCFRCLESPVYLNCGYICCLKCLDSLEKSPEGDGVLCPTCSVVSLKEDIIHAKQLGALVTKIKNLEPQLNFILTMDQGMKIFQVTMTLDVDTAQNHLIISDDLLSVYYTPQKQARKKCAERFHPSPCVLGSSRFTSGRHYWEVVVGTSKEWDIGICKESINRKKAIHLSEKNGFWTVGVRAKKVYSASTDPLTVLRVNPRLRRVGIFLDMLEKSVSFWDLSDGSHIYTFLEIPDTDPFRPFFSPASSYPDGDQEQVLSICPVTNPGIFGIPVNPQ
Assay: yeast two-hybrid mating screen of the ovary cDNA library with pGBKT7-RFPL4 as bait

# of clones: 1 clones
B1: Phosphoserine/threonine/tyrosine interaction protein (STYX) (protein, mouse, UniProt Q60969 1-223, looked up)
chain: MEDVKLEFPSLPQCKDDAEEWTYPMRREMQEVLPGLFLGPYSSAMKSKLPILQKHGITHIICIRQNIEANFIKPNFQQLFRYLVLDIADNPVENIIRFFPMTKEFIDGSLQNGGKVLVHGNAGISRSAAFVIAYIMETFGMKYRDAFAYVQERRFCINPNAGFVHQLQEYEAIYLAKLTIQMMSPLQIERSLAVHSGTTGSVKRTHEEDDDFGNMQVATAQNG

Reference: patent publication US20030144205A1
